# Data published in patent EP4635980A1 (Medigene Immunotherapies GmbH, dated 2025).
# Tests used:
# [1] = target: T1, ALA-10 mutagenic UNI-tag peptide (DKGEVPKDRASA); test: dot blot, peptide on PVDF membrane
# T1 construct: UNI-tag with alanine at position 10 (F10A); also called Uni-Tag-ALA 10; positive control
# T1 peptide: DKGEVPKDRASA
# [2] = target: T2, ALA-5 mutagenic UNI-tag peptide (DKGEAPKDRFSA); test: dot blot, peptide on PVDF membrane
# T2 construct: UNI-tag with alanine at position 5 (V5A); also called Uni-TAG-ALA 5; negative control
# T2 peptide: DKGEAPKDRFSA
binder,measurement,setting,value
"MDG827 monoclonal antibody (MDG827 hybridoma supernatant) (antibody, V domains shown, detected with anti-IgG2a secondary antibody; Used as hybridoma supernatant; also called MDG827 antibody; MDG827 Ab) VH: EVQLEESGGGLVQPGRSMKLSCAASGFTFSDYGMAWVLQGPTKGLEWVASISYDGNRPYYRDSVKGRFTISRDNAKSTLYLQMESLRSEDTATYYCVKDLFEIGDFDYWGQGVMVTVSS VL: DVLMTQTPVSLPVSLGGQVSISCRSSQSLVHSDGNTYLHWYLQKPGQSPQLLIYRVSNRFSGVPDRFTGSGSGTDFTLKISRVEPEDLGVYYCLQSTHFPLTFGSGTKLEIKR",binding result,[1],binds
same,binding result,[2],no binding
"recombinant monoclonal MDG827 antibody (produced in HEK293 cells) (antibody, V domains shown, used as culture supernatant; Detected with anti-rat IgG2a; also called recombinantly produced MDG827; anti-TRBC MDG827 antibody) VH: EVQLEESGGGLVQPGRSMKLSCAASGFTFSDYGMAWVLQGPTKGLEWVASISYDGNRPYYRDSVKGRFTISRDNAKSTLYLQMESLRSEDTATYYCVKDLFEIGDFDYWGQGVMVTVSS VL: DVLMTQTPVSLPVSLGGQVSISCRSSQSLVHSDGNTYLHWYLQKPGQSPQLLIYRVSNRFSGVPDRFTGSGSGTDFTLKISRVEPEDLGVYYCLQSTHFPLTFGSGTKLEIKR",binding result,[2],no binding
